These results are taken from PMC4604023.

Where two headings read alike, the source gives them in different places.

In data set [1] the target is nucleocapsid protein N (Rift Valley fever virus, UniProt P21700 1-245). The data set can be described thus: filter binding.
Target sequence in this assay (P21700 whole entry): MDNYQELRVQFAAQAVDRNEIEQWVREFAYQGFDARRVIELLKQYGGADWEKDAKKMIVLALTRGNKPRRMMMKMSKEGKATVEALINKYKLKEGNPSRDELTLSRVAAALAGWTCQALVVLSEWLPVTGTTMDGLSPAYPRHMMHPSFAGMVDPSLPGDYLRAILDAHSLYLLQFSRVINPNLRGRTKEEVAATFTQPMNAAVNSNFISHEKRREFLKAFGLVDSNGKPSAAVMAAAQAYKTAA
The target is the same in data set [2]. Description: filter binding. The source holds these as a separate data set.
Target sequence in this assay (P21700 whole entry): as above

B1: AS2 (AS-2) (structured_RNA)
RNA: GGAGUAUCUGUCGGCAUCACGCUUGGAUGUGCAAGGCUCUUUAUCUCUAUUAUGCAAG
On to B1, for which the binding result with nucleocapsid protein N [1] is “binds”.

B2: AS4 (AS-4) (structured_RNA)
RNA: GGGGCGCGUUCUAAACAACGAUUGCCGACAAGACGAUUUCUGGGUCAAACUUUAUUCG
Consider B2, for which, in the data set with nucleocapsid protein N [1], the binding result is “binds”.

B3: AS1 (AS-1) (structured_RNA)
RNA: GGUCGACAGGCUAGGCCGUCUAAAGCUGAUUGCUCCCGGGGAAUAAUUAUUGACAGCU
As to B3, in the data set with nucleocapsid protein N [1], the binding result is reported as “binds”.

B4: MBE87 (structured_RNA)
RNA: GGCAUUACGGCCGGGAGCCAGUAUUACUGAUUGAUGAUUCUGUGGGCGUCUUCUAG
Take B4: the binding result with nucleocapsid protein N [2] is “binds”.
